Biological target: prostate-specific membrane antigen (Homo sapiens (Human), UniProt Q04609)
Assay: cell-based or functional assay

B1: P28BB (CAR)
chain: EVQLQQSGPELVKPGTSVRISCKTSGYTFTEYTIHWVKQSHGKSLEWIGNINPNNGGTTYNQKFEDKATLTVDKSSSTAYMELRSLTSEDSAVYYCAAGWNFDYWGQGTTVTVSSGGGGSGGGGSGGGGSDIVMTQSHKFMSTSVGDRVSIICKASQDVGTAVDWYQQKPGQSPKLLIYWASTRHTGVPDRFTGSGSGTDFTLTITNVQSEDLADYFCQQYNSYPLTFGAGTMLDLKRAAAIEVMYPPPYLDNEKSNGTIIHVKGKHLCPSPLFPGPSKPFWVLVVVGGVLACYSLLVTVAFIIFWVRSKRSRLLHSDYMNMTPRRPGPTRKHYQPYAPPRDFAAYRSRFSVVKRGRKKLLYIFKQPFMRPVQTTQEEDGCSCRFPEEEEGGCE
  long-term T cell proliferation (absolute T cell counts over 31 days, no exogenous cytokine): 58 fold expansion

Source: patent US20150342993A1, “COMPOSITIONS AND METHODS FOR IMMUNOTHERAPY” (MEMORIAL SLOAN-KETTERING CANCER CENTER, published 2015)
